In patent publication US20070166710A1, “Methods for inhibiting adipogenesis and for treating type 2 diabetes” (priority 2003, published 2007):
Positions count from the first letter of the chain named.

B1: Foxa-2T156A (other, rat, UniProt P32182 1-458, looked up)
chain: MLGAVKMEGHEPSDWSSYYAEPEGYSSVSNMNASLGMNGMNTYMSMSAAAMGSGSGNMSAGSMNMSSYVGAGMSPSLAGMSPGAGAMAGMSGSAGAAGVAGMGPHLSPSLSPLGGQAAGAMGGLAPYANMNSMSPMYGQAGLSRARDPKTYRRSYAHAKPPYSYISLITMAIQQSPNKMLTLSEIYQWIMDLFPFYRQNQQRWQNSIRHSLSFNDFLKVPRAPDKPGKGSFWTLHPDSGNMFENGCYLRRQKRFKCENELALKEAAGAGSGGGKKTAPGTQASQVQLGEAAGSASETPAGTESPHSSASPCQEHKRGGLSELKGTPASALSPPEPAPSPGQQQQAAAHLLGPPHHPGLPPEAHLKPEHHYAFNHPFSINNLMSSEQQHHHSHHHHQPHKMDLKTYEQVMHYPGGYGSPMPGSLAMGPVTNKAGLDASPLAADTSYYQGVYSRPIMNSS
notes: Phosphorylation-deficient mutant; also called TI56A; Foxa-2TI56A
B2: Foxa-2R153K (other, rat, UniProt P32182 1-458, looked up)
chain: B1 chain with R153K, A156T

Assays:
[1] = target: T1, HA-Akt (human Akt1 fused to an N-terminal HA-tag, expressed from pCMV-HA-Akt) (human, UniProt P31749 1-480); experiment: co-immunoprecipitation from transfected HEK/293 cells (anti-HA IP, Western blot for Foxa-2; the reverse anti-Foxa-2 IP also coprecipitated Akt)
T1 construct: Expressed in transfected HEK/293 or HepG2 cells; The methods also mention Akt2 for HEK/293 transfections, but pCMV-HA-Akt is defined as HA-Akt1; also called HA-Akt1; pCMV-HA-Akt-1; not shown: N-terminal HA-tag

[2] = target: T1, HA-Akt (human Akt1 fused to an …); experiment: co-immunoprecipitation from transfected HEK/293 cells (anti-HA IP; the reverse anti-Foxa-2 IP gave the same result)

T1 sequence (P31749 whole entry, the tested form may be a part): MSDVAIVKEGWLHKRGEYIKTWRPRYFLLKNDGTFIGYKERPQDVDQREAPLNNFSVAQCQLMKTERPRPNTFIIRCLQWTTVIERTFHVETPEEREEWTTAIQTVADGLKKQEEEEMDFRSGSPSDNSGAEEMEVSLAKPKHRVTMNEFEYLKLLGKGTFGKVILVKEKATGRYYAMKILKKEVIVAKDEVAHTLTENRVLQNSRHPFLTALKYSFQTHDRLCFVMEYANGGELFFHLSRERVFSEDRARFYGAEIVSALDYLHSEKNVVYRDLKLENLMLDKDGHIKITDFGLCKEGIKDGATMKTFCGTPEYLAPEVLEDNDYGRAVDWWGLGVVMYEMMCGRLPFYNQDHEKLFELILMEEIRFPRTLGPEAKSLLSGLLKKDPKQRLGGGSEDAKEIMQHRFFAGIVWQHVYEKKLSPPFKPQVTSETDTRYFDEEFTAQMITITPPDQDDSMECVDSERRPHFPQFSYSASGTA

| Binder | binding result [1] | binding result [2] |
| --- | --- | --- |
| B1 | binds |  |
| B2 |  | no binding |
